16 sequences from the nanobody polyreactivity screen of Harvey et al. (2022) can be followed below.

This series can be described thus: yeast display, Sf9 membrane polyspecificity reagent, FACS + sequencing; frameworks hold sequencing errors. A digest of the protocol:
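A nanobody's polyreactivity label depends on the gate it was sorted from. Yeast display cells were stained with 10% biotinylated, detergent-solubilized Sf9 membrane reagent for 1 hour at 4 °C, enriched on streptavidin microbeads and sorted by FACS. The low and high (top ~1%) gates were set on anti-HA fluorescence for expression and streptavidin fluorescence for reagent binding.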
Take “QVQLVESGGGLVQAGGSLRLSCAASGFTLVGYAMGWYRQAPGKERELVADINYSGGRTYYADSVKGRFTISRDNAKNTVYLQMNSLNPEDTAVYYCNAAGALSWFYYGYDYWGQGTQVTVSS”: the “polyreactivity (PSR sort gate)” value was “low polyreactivity”.

For the sequence “QVQLVESGGGLVQAGGSLRLSCAASGFTLVLNAMGWYRQAPGKERELVAAIRRSAGSTYYADSVKGRFTISRDNAKNTVYLQLNSLKPEDTAVYYCAACFLWAKYAYGHWGTFNYWGQGTQVTVSS”, the “polyreactivity (PSR sort gate)” value was “low polyreactivity”.

In the case of “QVQLVESGGGLVQAGGSLRLSCAASGFTLWLNAMGWYRQAPGTERELVAAITTSDDGTYYADSVKGRFTISRDNAKNTVYLQMNSLKPEDTAVYYCAADYYSVLYDYWGQGTQVTVSS”, the “polyreactivity (PSR sort gate)” value is listed as “low polyreactivity”.

“QVQLVESGGGLVQAGGSLRLSCAASGFTLYGNVMGWYRQAPGKERELVASISWSGGNTYYADSVKGRFTISRDNAKNTVYLQMNSLKPEDTAVYYCNANYYDKYGYWGQGTQVTVSS”: the “polyreactivity (PSR sort gate)” value is listed as “low polyreactivity”.

“QVQLVESGGGLVQAGGSLRLSCAASGFTLYVYDMGWYRQAHGKERELVAAINGGGSTNYADSVKGRFTISRDNAKNTVYLQMNSLKPEDTAVYYCAAEDAYGRDVYYGSDYWGQGTLVTVSS”: the “polyreactivity (PSR sort gate)” value was “low polyreactivity”.

For “QVQLVESGGGLVQAGGSLRLSCAASGFTLYYYTMGWYRQAPGKERELVAAITSGGDTYYADSVKGRFTISRDNAKNTVYLQMNSLKPEDTAVYYCDAKKKYHYVASYKRFEYWGQGTQVTVSS”, the “polyreactivity (PSR sort gate)” value is “low polyreactivity”.

With “QVQLVESGGGLVQAGGSLRLSCAASGFTMARYAMGSYRQAPGKERELVAAISWSGGSTYYADSVKGRFTISRDNAKNTVYLQMNSLKPEDTAVYYCNAVYATRIGFDYWGQGTQVTVSS”, the “polyreactivity (PSR sort gate)” value is given as “high polyreactivity”.

For “QVQLVESGGGLVQAGGSLRLSCAASGFTNAMGWYRQAPGKERELVAAISYSGDSTNYADSVKGRFTISRDNAKNTVYLQMKSLKPEDSAVYYCNASSPYDYDWGQGTQVTVSS”, the “polyreactivity (PSR sort gate)” value is reported as “low polyreactivity”.

In the case of “QVQLVESGGGLVQAGGSLRLSCAASGFTSDTNAMGWYRQAAGKERELVAAIDSGGGSTYYADSVKGRFTISRENSKNTVYFQMNSLKPEDTAVYYCNAEQTPFVASLRVGEYGYWGQGTQVTVSS”, the “polyreactivity (PSR sort gate)” value is reported as “low polyreactivity”.

In the case of “QVQLVESGGGLVQAGGSLRLSCAASGFTSRANAMGWYRQAPWKESELVAVITAGGGSTSYADSVKGRFTISRDNAKNTVYLQMNSLKPEDTAVYYCASTWYGGPYKSYYYWGQGTQVTVSS”, the “polyreactivity (PSR sort gate)” value was “low polyreactivity”.

On to “QVQLVESGGGLVQAGGSLRLSCAASGFTSRTYAMGWYRQAPGKERELVAAITFSGGSTYYADSVKGRFTISRDNAKNTVYLQMNSLKPEDTAVYYCARDGLWYNAIWEYDYWGQGTQVTVSS”, for which the “polyreactivity (PSR sort gate)” value is given as “high polyreactivity”.

On to “QVQLVESGGGLVQAGGSLRLSCAASGFTSWDNDMGWYRQAPGKERELVAAISRGGSTNYADSVKGRFTISRDNAKNTVYLQMNSLNPEDTAVYYCAAEDWYQRYGYEYDYWGQGTQVTVSS”, for which the “polyreactivity (PSR sort gate)” value is listed as “low polyreactivity”.

For “QVQLVESGGGLVQAGGSLRLSCAASGFTSWVYAMGWYRPAPGKERELVAAITWSTDDTYYADSVKGRFTISRDNSKNTVYIQINSLKPEDSAVYYCAAQQYTYVETWDGYDYWGQGTQVTVSS”, the “polyreactivity (PSR sort gate)” value is reported as “low polyreactivity”.

For the sequence “QVQLVESGGGLVQAGGSLRLSCAASGFTSWYDMGWYRQAPGKEMELVAAISSGGSTNYADSVKGRFTISRDNAKNTVYLEMNSLKPEDTAVYYCNAECYETGVPYFGFYYWGQGTQVTVSS”, the “polyreactivity (PSR sort gate)” value is “low polyreactivity”.

Consider “QVQLVESGGGLVQAGGSLRLSCAASGFTVAYYAMGWYRQAPGKERELVAAITGSGGRTYYADSVKGRFTISRDNAKNTVYLQMTSLKPEDTAVYYCAALTGPYKAQVHGGHTPLDYWGHGTQVTVSS”, for which the “polyreactivity (PSR sort gate)” value is listed as “low polyreactivity”.

Regarding “QVQLVESGGGLVQAGGSLRLSCAASGFTVGYAMGWYRQAPGTERELVAAITRGGGTRTSYADSVKGRFTISRDNAKNTVYLQMNSLKPEDTAVYYCAARRWWSPRTQYDYWGQGTQVTVSS”, the “polyreactivity (PSR sort gate)” value was “high polyreactivity”.
